Patent publication US20240033343A1

Legend:
S2GGSGG (SARS-CoV-2) = S2GGSGG (SARS-CoV-2) (UniProt P0DTC2)
W2GSG (SARS-CoV-2; HIV) = W2GSG (SARS-CoV-2; HIV) (UniProt P0DTC2)
W1GGSG (SARS-CoV-2; HIV) = W1GGSG (SARS-CoV-2; HIV) (UniProt P0DTC2)
[1] = biological target: SARS-CoV-2 Sclamp (SARS-CoV-2) (UniProt P0DTC2)
W1GSG (SARS-CoV-2) = W1GSG (SARS-CoV-2) (UniProt P0DTC2)
RAA (SARS-CoV-2; HIV) = RAA (SARS-CoV-2; HIV) (UniProt P0DTC2)
S1GGSGG (SARS-CoV-2) = S1GGSGG (SARS-CoV-2) (UniProt P0DTC2)
S1GSG (SARS-CoV-2) = S1GSG (SARS-CoV-2) (UniProt P0DTC2)
AAAA (SARS-CoV-2; HIV) = AAAA (SARS-CoV-2; HIV) (UniProt P0DTC2)
[2] = biological target: W2GGSGG (SARS-CoV-2; HIV) (UniProt P0DTC2)
M1GGSGG (SARS-CoV-2) = M1GGSGG (SARS-CoV-2) (UniProt P0DTC2)
S2GSG (SARS-CoV-2) = S2GSG (SARS-CoV-2) (UniProt P0DTC2)

Work on CR3022 (antibody) yielded a Kd (S2GGSGG (SARS-CoV-2)) of 1.18 nM, a Kd (W2GSG (SARS-CoV-2; HIV)) of 2.06 nM and a Kd (W1GGSG (SARS-CoV-2; HIV)) of 0.89 nM. For the same substance, the Kd [1] was 0.58 nM, the Kd (W1GSG (SARS-CoV-2)) was 1.08 nM and the Kd (RAA (SARS-CoV-2; HIV)) was 0.91 nM. For the same substance, the Kd (S1GGSGG (SARS-CoV-2)) was 0.69 nM, the Kd (S1GSG (SARS-CoV-2)) was 1.02 nM and the Kd (AAAA (SARS-CoV-2; HIV)) was 0.74 nM. It also gave a Kd [2] of 1.09 nM, a Kd (M1GGSGG (SARS-CoV-2)) of 0.57 nM and a Kd (S2GSG (SARS-CoV-2)) of 1.03 nM.
